Experimental data from US6127178A, “Apoptotic peptides” (The Regents of the University of California, priority 1998, dated 2000).
Entries after “also recorded” stand apart in the source; their conditions may differ.

B1: Id2: full-length Id2 helix-loop-helix protein expressed from transfected cDNA (pMAMNeo dex-inducible or tet-regulated vector) (protein, UniProt Q02363 1-134, looked up)
chain: MKAFSPVRSVRKNSLSDHSLGISRSKTPVDDPMSLLYNMNDCYSKLKELVPSIPQNKKVSKMEILQHVIDYILDLQIALDSHPTIVSLHHQRPGQNQASRTPLTTLNTDISILSLQASEFPSELMSNDSKALCG
modifications: full-length
B2: Id3: Id family helix-loop-helix protein expressed in 32D.3 cells from pMAMNeo (protein, UniProt P41133 1-119, looked up)
DNA-binding protein inhibitor …: MKALSPVRGCYEAVCCLSERSLAIARGRGKSPSTEEPLSLLDDMNHCYSRLRELVPGVPRGTQLSQVEILQRVIDYILDLQVVLAEPAPGPPDGPHLPIQTAELTPELVISKDKRSFCH

Assays:
32D.3 myeloid cells [1] = assay: FACS analysis of subdiploid population in 32D.3 transfectants; type: cell-based, mouse; details: following IL-3 removal
Experimental: Id2 enhances apoptosis in 32D.3 myeloid cells following IL-3 withdrawal. Since Id2 levels in 32D.3 cells increased in association with IL-3 withdrawal, we examined the effect of increasing Id2 expression on the apoptotic response of these cells. 32D.3 myeloid progenitor cells were transfected with the dexamethasone (dex)-inducible pMAMNeo expression vector containing a full-length Id2 cDNA. The expression of Id2 in clones and pools of transfectants was determined in immunoblots, and we observed a 3-4 fold increase in Id2 protein levels upon treatment of the cells with dex for 16 hours as compared to cells transfected with vector DNA or with a pMAMNeo recombinant plasmid with Id2 in the antisense orientation.

32D.3 myeloid cells [2] = assay: Viability by trypan blue dye exclusion in 32D.3 transfectants; type: cell-based, mouse; details: for rates of cell death: following withdrawal of IL-3, relative to control cells
From the text: cDNA constructs and establishment of cell lines. The mouse 32D.3 myeloid cell line was maintained in RPMI 1640 medium (GIBCO) supplemented with 10% fetal calf serum and 20U of IL-3 per ml as previously described (3, 12). The human IdI, Id2 and Id3 cDNAs (5, 6, 11) were introduced into the pMAM-Neo expression plasmid (Clontech, Palo Alto, Calif.) at the Xhol site. Mutations in Id2 and Id3 were generated by the polymerase chain reaction. To prepare an N-terminus deletion mutant, a 0.3 kb SalI-XhoI fragment lacking the region encoding amino acids 1-34 was inserted into the pMAM vector. A C-terminally truncated Id2 was prepared by removing a SmaI fragment containing cDNA corresponding to amino acids 93-135. Id2ΔHLH was prepared as previously described (34) and subcloned into the pMAM vector at the XhoI site. The primary structure of all mutants was confirmed by DNA sequencing. 32D.3 cells were electroporated as previously described with 10 μg of linearized plasmid DNA (12). Transfected cells were selected in medium containing 0.4/mg/ml G418 and single cell clones were isolated by limiting dilution, as well as pools of transfectants. To prepare additional cultures, drug-resistant clones and pools of clones were prepared by transfecting cells with pMAMNeo DNA alone and pMAMNeo containing Id2 cDNAs in the antisense orientation. 32D.3 cells were grown in suspension and maintained at equivalent exponential growth phases by seeding at 1×10^5 cells per ml culture medium. All subsequent analyses were performed using cells harvested at 0.5-1×10^6 cells per ml.
Viability and apoptosis assays. To investigate the effects of Id gene expression upon viability, cells growing exponentially in the presence of IL-3 (20 U/ml) were treated with dexamethasone for 16 hours. The cells were collected by centrifugation at 200×g for 10 min, washed twice in PBS, and resuspended in RPMI medium with 10% fetal bovine serum without IL-3. The number of viable cells was determined at various times after IL-3 withdrawal by trypan blue dye exclusion. […]

32D.3 myeloid cells [3] = assay: Apoptosis (TUNEL) assay in 32D.3 transfectants; type: cell-based, mouse; details: following IL-3 withdrawal, dex-induced expression
From the text: cDNA constructs and establishment of cell lines. The mouse 32D.3 myeloid cell line was maintained in RPMI 1640 medium (GIBCO) supplemented with 10% fetal calf serum and 20U of IL-3 per ml as previously described (3, 12). The human IdI, Id2 and Id3 cDNAs (5, 6, 11) were introduced into the pMAM-Neo expression plasmid (Clontech, Palo Alto, Calif.) at the Xhol site. Mutations in Id2 and Id3 were generated by the polymerase chain reaction. To prepare an N-terminus deletion mutant, a 0.3 kb SalI-XhoI fragment lacking the region encoding amino acids 1-34 was inserted into the pMAM vector. A C-terminally truncated Id2 was prepared by removing a SmaI fragment containing cDNA corresponding to amino acids 93-135. Id2ΔHLH was prepared as previously described (34) and subcloned into the pMAM vector at the XhoI site. The primary structure of all mutants was confirmed by DNA sequencing. 32D.3 cells were electroporated as previously described with 10 μg of linearized plasmid DNA (12). […]
Expression of Id genes and immunoblot analysis. […] The expression of Bax proteins was monitored using a rabbit anti-Bax polyclonal sc-930 (Santa Cruz Biotechnology, Santa Cruz, Calif.). […]
Viability and apoptosis assays. […] The number of viable cells was determined at various times after IL-3 withdrawal by trypan blue dye exclusion. […]

U20S osteosarcoma cells = assay: DNA content by flow cytometry in tet-regulated U20S transfectants; type: cell-based; details: clone 9, four days after removal of tetracycline (1000 ng/ml), in serum
Experimental: To prepare a recombinant expression construct encoding Id2 which could be regulated by the addition of tetracycline to the culture media, the Kpn1/HindIII filled-in fragment of Id2 cDNA was inserted into the pUHD 10-3 vector (26) at EcoRI blunt-ended sites to prepare a tTA-responsive Id2 expression vector. DNA from pUHD-10-3Id2 was used in addition to DNA from pTet-TAk (GIBCO), encoding the tetracycline-regulatable tTA protein. Stable transfectants were prepared in the U20S osteosarcoma cell line by performing a 3 vector transfection using LipofectAmine (GIBCO) at a DNA ratio of 5:5:1 between pTet-Id2:ptet-TAk:pcDNA-3 and selected in the presence of DME/10%FBS/G418 (0.6 mg/ml)/tetracycline (5 μg/ml) media was changed after 2 days. […] To show expression of Id2, cells were trypsinized and plated with varying concentrations of tetracycline (0-1000 ng/ml).
To determine the extent of apoptosis in U20S cells transfected with pTet-Id2 DNA, cells were plated at a density of 5×10^5 cells per p100 plate and allowed to adhere for 24 hours in the presence of 1000 ng/ml tetracycline (tet). Then the media was changed to either 0 or 1000 ng/ml tet after 2 washes with PBS. The cells were maintained in the culture for 4 days before harvesting by trypsinization (floating cells were also harvested). […] DNA content was determined by flow cytometry on a FACSort (53).

Bax = assay: Immunoblot of apoptosis regulators in 32D.3 transfectants; type: cell-based, mouse
Experimental: Expression of Id genes and immunoblot analysis. Id gene expression was induced by addition of 1 μM dexamethasone (Sigma) for 16 hours. Cells were then collected at the indicated times by centrifugation, washed in PBS, and whole cell lysates were prepared by resuspending the pellets in RIPA buffer (150 mM NaCl, 1 mM EDTA, 1% Nonidet P-40, 1% sodium deoxycholate, 20 mM Tris-HCl pH 7.2) containing protease inhibitors (1 μM phenylmethyl-sulfonylfluoride, 0.01 μM benzamidine HCl, 1 μg/ml o-phenanthroline, and 0.5 μg/ml each of antipain, leupeptin, pepstatin A, and aprotinin). The lysates were then clarified by centrifugation and examined by 12.5% SDS-PAGE. Western blot analysis was carried out to detect expression of Id proteins using the sc-489 rabbit polyclonal antibody against Id2 (Santa Cruz Biotechnology, Santa Cruz, Calif.) and rabbit polyclonal antibodies generated against bacterially expressed Id1 or Id3 (C. Hernandez, unpublished). The expression of Bax proteins was monitored using a rabbit anti-Bax polyclonal sc-930 (Santa Cruz Biotechnology, Santa Cruz, Calif.). Briefly, blots were washed with blocking buffer [4% milk powder and 0.2% Tween-20 in phosphate-buffered saline (PBS)], incubated with anti-Id2 or Bax antibodies (used at a 1:1000 dilution in blocking buffer), washed, and incubated with peroxidase-conjugated […]. […]

Molecule	subdiploid population, indicative of apoptotic DNA fragmentation (32D.3 myeloid cells [1])	rates of cell death (32D.3 myeloid cells [2])	effects on viability (32D.3 myeloid cells [2]; presence of IL-3, 16 hours of treatment with dex)	extent of apoptosis by the TUNEL assay (32D.3 myeloid cells [3])	apoptotic cells with subdiploid DNA content (U20S osteosarcoma cells)	levels of other known regulators including Bad, Bcl-2, Bcl-XL and Bcl-XS (Bax; cultured in IL-3)	Bax levels (Bax; cultured in IL-3, relative to vector transfected cells)
B1	significantly augmented	dramatically accelerated rates of death	only minor effects on viability	significantly elevated apoptosis; also recorded: concentration-dependent; also recorded: expected enhancement in apoptosis	a large proportion of apoptotic cells with subdiploid DNA content	no changes	elevated
B2		without effect					
